# In patent US20110118131A1 (published 2011):
# Changes are numbered by the printed parent chain. Names and notes keep the numbering of the source.
# B1: XPA23 heavy chain N104G (Fab, V domains shown)
# VH: EVQLLESGGGLVQPGGSLRLSCAASGFTFSKYFMFWVRQAPGKGLEWVSVISPSGGMTRYADSVKGRFTISRDNSKNTLYLQMNSLRAEDTAVYYCARVGYGGGSDYWGQGTLVTVSS
# VL: DIQMTQSPSSVSASVGDRLTIICRASQDINRWLAWYQQTPGNAPKLLIHSATSLQSGVPSRFSGSGSGTDFTLTINSLQPEDFATYYCQQADSFPLTFGGGTKVEIK
# notes: Fab, periplasmic extract; also called C5A N104G
# B2: XPA23 heavy chain R59G (Fab, V domains shown)
# VH: B1 VH with R59G, G104N
# VL: B1 VL
# notes: Fab, periplasmic extract; also called C5A R59G
# B3: XPA23 heavy chain S105V (Fab, V domains shown)
# VH: B1 VH with G104N, S105V
# VL: B1 VL
# notes: Fab, periplasmic extract; also called C5A S105V
# B4: XPA23 heavy chain S30T (Fab, V domains shown)
# VH: B1 VH with S30T, G104N
# VL: B1 VL
# notes: Fab, periplasmic extract; also called C5A S30T
# B5: XPA23 heavy chain R59P (Fab, V domains shown)
# VH: B1 VH with R59P, G104N
# VL: B1 VL
# notes: Fab, periplasmic extract; also called C5A R59P
# B6: XPA23 heavy chain P53V (Fab, V domains shown)
# VH: B1 VH with P53V, G104N
# VL: B1 VL
# notes: Fab, periplasmic extract; also called C5A P53V
# B7: XPA23 heavy chain N104T (Fab, V domains shown)
# VH: B1 VH with G104T
# VL: B1 VL
# notes: Fab, periplasmic extract; also called C5A N104T
# B8: XPA23 heavy chain V50A (Fab, V domains shown)
# VH: B1 VH with V50A, G104N
# VL: B1 VL
# notes: Fab, periplasmic extract; also called C5A V50A
# B9: XPA23 heavy chain S54L (Fab, V domains shown)
# VH: B1 VH with S54L, G104N
# VL: B1 VL
# notes: Fab, periplasmic extract; also called C5A S54L
# B10: XPA23 heavy chain T58L (Fab, V domains shown)
# VH: B1 VH with T58L, G104N
# VL: B1 VL
# notes: Fab, periplasmic extract; also called C5A T58L
# B11: XPA23 heavy chain S30G (Fab, V domains shown)
# VH: B1 VH with S30G, G104N
# VL: B1 VL
# notes: Fab, periplasmic extract; also called C5A S30G
# B12: XPA23 heavy chain S105G (Fab, V domains shown)
# VH: B1 VH with G104N, S105G
# VL: B1 VL
# notes: Fab, periplasmic extract; also called C5A S105G
# B13: XPA23 heavy chain S54A (Fab, V domains shown)
# VH: B1 VH with S54A, G104N
# VL: B1 VL
# notes: Fab, periplasmic extract; also called C5A S54A
# B14: XPA23 heavy chain R59L (Fab, V domains shown)
# VH: B1 VH with R59L, G104N
# VL: B1 VL
# notes: Fab, periplasmic extract; also called C5A R59L
# B15: XPA23 heavy chain S52A (Fab, V domains shown)
# VH: B1 VH with S52A, G104N
# VL: B1 VL
# notes: Fab, periplasmic extract; also called C5A S52A
# B16: XPA23 heavy chain P53A (Fab, V domains shown)
# VH: B1 VH with P53A, G104N
# VL: B1 VL
# notes: Fab, periplasmic extract; also called C5A P53A
# B17: XPA23 heavy chain S52G (Fab, V domains shown)
# VH: B1 VH with S52G, G104N
# VL: B1 VL
# notes: Fab, periplasmic extract; also called C5A S52G
# B18: XPA23 heavy chain S105A (Fab, V domains shown)
# VH: B1 VH with G104N, S105A
# VL: B1 VL
# notes: Fab, periplasmic extract; also called C5A S105A
# B19: XPA23 heavy chain S30I (Fab, V domains shown)
# VH: B1 VH with S30I, G104N
# VL: B1 VL
# notes: Fab, periplasmic extract; also called C5A S30I
# B20: XPA23 heavy chain T58I (Fab, V domains shown)
# VH: B1 VH with T58I, G104N
# VL: B1 VL
# notes: Fab, periplasmic extract; also called C5A T58I
# B21: XPA23 heavy chain S52P (Fab, V domains shown)
# VH: B1 VH with S52P, G104N
# VL: B1 VL
# notes: Fab, periplasmic extract; also called C5A S52P
# B22: XPA23 heavy chain P53G (Fab, V domains shown)
# VH: B1 VH with P53G, G104N
# VL: B1 VL
# notes: Fab, periplasmic extract; also called C5A P53G
# B23: XPA23 heavy chain S54V (Fab, V domains shown)
# VH: B1 VH with S54V, G104N
# VL: B1 VL
# notes: Fab, periplasmic extract; also called C5A S54V
# B24: XPA23 heavy chain R59T (Fab, V domains shown)
# VH: B1 VH with R59T, G104N
# VL: B1 VL
# notes: Fab, periplasmic extract; also called C5A R59T
# B25: XPA23 heavy chain S105P (Fab, V domains shown)
# VH: B1 VH with G104N, S105P
# VL: B1 VL
# notes: Fab, periplasmic extract; also called C5A S105P
# B26: XPA23 heavy chain V50G (Fab, V domains shown)
# VH: B1 VH with V50G, G104N
# VL: B1 VL
# notes: Fab, periplasmic extract; also called C5A V50G
# B27: XPA23 heavy chain T58P (Fab, V domains shown)
# VH: B1 VH with T58P, G104N
# VL: B1 VL
# notes: Fab, periplasmic extract; also called C5A T58P
# B28: XPA23 heavy chain T58A (Fab, V domains shown)
# VH: B1 VH with T58A, G104N
# VL: B1 VL
# notes: Fab, periplasmic extract; also called C5A T58A
# B29: XPA23 heavy chain V50I (Fab, V domains shown)
# VH: B1 VH with V50I, G104N
# VL: B1 VL
# notes: Fab, periplasmic extract; also called C5A V50I
# B30: XPA23 heavy chain S54I (Fab, V domains shown)
# VH: B1 VH with S54I, G104N
# VL: B1 VL
# notes: Fab, periplasmic extract; also called C5A S54I
# B31: XPA23 heavy chain S52V (Fab, V domains shown)
# VH: B1 VH with S52V, G104N
# VL: B1 VL
# notes: Fab, periplasmic extract; also called C5A S52V
# B32: XPA23 heavy chain S105T (Fab, V domains shown)
# VH: B1 VH with G104N, S105T
# VL: B1 VL
# notes: Fab, periplasmic extract; also called C5A S105T
# B33: XPA23 heavy chain T58V (Fab, V domains shown)
# VH: B1 VH with T58V, G104N
# VL: B1 VL
# notes: Fab, periplasmic extract; also called C5A T58V
# B34: XPA23 heavy chain S54P (Fab, V domains shown)
# VH: B1 VH with S54P, G104N
# VL: B1 VL
# notes: Fab, periplasmic extract; also called C5A S54P
# B35: XPA23 heavy chain N104V (Fab, V domains shown)
# VH: B1 VH with G104V
# VL: B1 VL
# notes: Fab, periplasmic extract; also called C5A N104V
# B36: XPA23 heavy chain S30L (Fab, V domains shown)
# VH: B1 VH with S30L, G104N
# VL: B1 VL
# notes: Fab, periplasmic extract; also called C5A S30L
# B37: XPA23 heavy chain N104L (Fab, V domains shown)
# VH: B1 VH with G104L
# VL: B1 VL
# notes: Fab, periplasmic extract; also called C5A N104L
# B38: XPA23 heavy chain P53I (Fab, V domains shown)
# VH: B1 VH with P53I, G104N
# VL: B1 VL
# notes: Fab, periplasmic extract; also called C5A P53I
# B39: XPA23 heavy chain S105I (Fab, V domains shown)
# VH: B1 VH with G104N, S105I
# VL: B1 VL
# notes: Fab, periplasmic extract; also called C5A S105I
# B40: XPA23 heavy chain S54T (Fab, V domains shown)
# VH: B1 VH with S54T, G104N
# VL: B1 VL
# notes: Fab, periplasmic extract; also called C5A S54T
# B41: XPA23 heavy chain P53L (Fab, V domains shown)
# VH: B1 VH with P53L, G104N
# VL: B1 VL
# notes: Fab, periplasmic extract; also called C5A P53L
# B42: XPA23 heavy chain S30A (Fab, V domains shown)
# VH: B1 VH with S30A, G104N
# VL: B1 VL
# notes: Fab, periplasmic extract; also called C5A S30A
# B43: XPA23 heavy chain T58G (Fab, V domains shown)
# VH: B1 VH with T58G, G104N
# VL: B1 VL
# notes: Fab, periplasmic extract; also called C5A T58G
# B44: XPA23 heavy chain S54G (Fab, V domains shown)
# VH: B1 VH with S54G, G104N
# VL: B1 VL
# notes: Fab, periplasmic extract; also called C5A S54G
# B45: XPA23 heavy chain S52T (Fab, V domains shown)
# VH: B1 VH with S52T, G104N
# VL: B1 VL
# notes: Fab, periplasmic extract; also called C5A S52T
# Target: T1, IL-1β (UniProt P01584 117-269)
# T1 construct: Antigen of XPA23
# Test: Biacore, Fab periplasmic extract
row,fold difference in affinity against the original,Binder
1,1.21 fold,B1
2,1.04 fold,B2
3,0.08 fold,B3
4,0.06 fold,B4
5,0.07 fold,B5
6,1.1 fold,B6
7,0.95 fold,B7
8,0.09 fold,B8
9,0.91 fold,B9
10,0.95 fold,B10
11,0.13 fold,B11
12,0.12 fold,B12
13,1 fold,B13
14,0.08 fold,B14
15,0.05 fold,B15
16,0.05 fold,B16
17,0.03 fold,B17
18,0.84 fold,B18
19,0.08 fold,B19
20,0.95 fold,B20
21,0.05 fold,B21
22,0.02 fold,B22
23,1 fold,B23

row,fold difference in affinity against the original,Binder
1,0.76 fold,B24
2,1.41 fold,B25
3,0.03 fold,B26
4,1.81 fold,B27
5,0.14 fold,B28
6,0.1 fold,B29
7,0.86 fold,B30
8,0.04 fold,B31
9,0.11 fold,B32
10,0.99 fold,B33
11,0.06 fold,B34
12,1.27 fold,B35
13,0.91 fold,B36
14,1.19 fold,B37
15,0.08 fold,B38
16,0.07 fold,B39
17,0.14 fold,B40
18,0.04 fold,B41
19,0.77 fold,B42
20,0.95 fold,B43
21,1.43 fold,B44
22,0.04 fold,B45
